Assay results: patent US20020099180A1 (published 2002)

B1: scFv #34 (VH #34, IgG; VL III43; murine HCDR3 F19) (scFv)
scFv: QVQLQQSGAEVKKPGSSVKVSCKASGGTFSTHTINWVRQAPGQGLEWMGGIAPMFGTANYAQKFQGRVTITADKSTSTAYMEMSSLRSDDTAVYYCARRRIAYGYDEGHAMDYWGQGTLVTVSSASTKGPKLEEGEFSEARVDIQMTQSPSSLSASTGDRVTITCRASQDISSYLAWYQQAPGKAPHLLMSGATTLQTGVPSRFSGSGSGTDFTLTISSLQAEDVAVYYCQQYYRTPFTFGQGTKLEIKRTVAAPSVFAA
notes: Humanised monovalent scFv, detected through the c-myc tag with 9E10; also called clone #34; VH34YOL III43; not shown: c-myc and HIS6 tags (pOPE101), or pIII in the screening ELISA
B2: scFv #18 (VH #18, IgG; VL III43; murine HCDR3 F19) (scFv)
scFv: QVQLVQSGAELKKPGSSMKVSCKASGDTFSTYSINWVRQAPGQGLEWMGVINPSGGSTSYAQKFQGRVTMTRDTSTSTVYMELSSLRSEDTAVYYCARRRIAYGYDEGHAMDYWGQGTLVTVSSASTKGPKLEEGEFSEARVDIQMTQSPSSLSASTGDRVTITCRASQDISSYLAWYQQAPGKAPHLLMSGATTLQTGVPSRFSGSGSGTDFTLTISSLQAEDVAVYYCQQYYRTPFTFGQGTKLEIKRTVAAPSVFAA
notes: Humanised monovalent scFv, detected through the c-myc tag with 9E10; also called clone #18; VH18 YOL III43; not shown: c-myc and HIS6 tags (pOPE101), or pIII in the screening ELISA

Target: T1, tetanus toxoid (UniProt P04958 2-1315)
T1 construct: also called TTX
T1 sequence (P04958 2-457 limits assumed, chain 1 of 2): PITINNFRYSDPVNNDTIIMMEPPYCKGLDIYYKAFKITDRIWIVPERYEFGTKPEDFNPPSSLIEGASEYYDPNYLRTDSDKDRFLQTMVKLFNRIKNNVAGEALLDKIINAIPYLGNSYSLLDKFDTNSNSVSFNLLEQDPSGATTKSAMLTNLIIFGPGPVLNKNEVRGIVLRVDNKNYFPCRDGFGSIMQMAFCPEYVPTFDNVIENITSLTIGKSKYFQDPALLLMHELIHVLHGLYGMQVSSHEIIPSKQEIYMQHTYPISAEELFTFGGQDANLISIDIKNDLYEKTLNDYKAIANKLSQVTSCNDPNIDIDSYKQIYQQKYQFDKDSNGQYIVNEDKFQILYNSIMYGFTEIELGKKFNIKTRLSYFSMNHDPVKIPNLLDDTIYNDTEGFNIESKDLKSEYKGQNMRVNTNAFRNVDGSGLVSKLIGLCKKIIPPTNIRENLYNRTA
T1 sequence (P04958 458-1315 limits assumed, chain 2 of 2): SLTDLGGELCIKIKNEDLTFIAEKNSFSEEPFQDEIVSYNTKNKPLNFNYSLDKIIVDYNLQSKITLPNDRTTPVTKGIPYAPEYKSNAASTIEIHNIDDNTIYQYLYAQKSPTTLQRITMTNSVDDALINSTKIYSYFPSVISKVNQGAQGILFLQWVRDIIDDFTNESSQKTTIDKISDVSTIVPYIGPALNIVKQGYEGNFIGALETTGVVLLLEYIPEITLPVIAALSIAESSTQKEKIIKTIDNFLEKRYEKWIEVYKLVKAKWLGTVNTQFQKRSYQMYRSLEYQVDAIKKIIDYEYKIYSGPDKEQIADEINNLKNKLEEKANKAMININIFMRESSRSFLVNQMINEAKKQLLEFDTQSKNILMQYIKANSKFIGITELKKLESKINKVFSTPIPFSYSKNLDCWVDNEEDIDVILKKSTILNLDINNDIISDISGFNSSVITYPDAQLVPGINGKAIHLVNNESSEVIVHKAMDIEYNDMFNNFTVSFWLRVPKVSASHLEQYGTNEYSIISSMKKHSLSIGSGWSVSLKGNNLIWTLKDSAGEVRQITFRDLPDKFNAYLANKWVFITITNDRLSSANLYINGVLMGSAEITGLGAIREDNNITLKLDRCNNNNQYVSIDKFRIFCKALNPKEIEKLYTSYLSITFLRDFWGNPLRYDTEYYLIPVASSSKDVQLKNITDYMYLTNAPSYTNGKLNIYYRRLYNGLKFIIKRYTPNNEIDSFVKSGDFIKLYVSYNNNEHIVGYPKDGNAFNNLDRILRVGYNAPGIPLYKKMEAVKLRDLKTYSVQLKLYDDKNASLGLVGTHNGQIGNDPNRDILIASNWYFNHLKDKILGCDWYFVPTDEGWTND
Assay: ELISA, wells coated with FAP or irrelevant Ag as for the chimeric scFv

Binder	binding result
B1	no binding
B2	no binding
